Earlier results, collected in PMC9437947.

Biological target: Lys166 (UniProt position 166, RAVKTKIGYPA)
Experiment: kinetics
Settings: H297N mutant turning over S-mandelate in the exchange reaction

Substance: Mandelate racemase H297N mutant (Pseudomonas putida (inferred; organism not stated in the article); H297N)
- pKa: ~ 6
